Results published in the nanobody polyreactivity screen of Harvey et al. (2022).

Test: yeast display, Sf9 membrane polyspecificity reagent, FACS + sequencing; frameworks hold sequencing errors
Method in brief: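 Galactose induction of a Saccharomyces cerevisiae BJ5465 synthetic nanobody display library ran 36–48 hours. The cells were then stained for 1 hour at 4 °C with 10% biotinylated, detergent-solubilized Sf9 membrane reagent, pulled down on streptavidin microbeads and FACS-sorted into low and high (top ~1%) gates on expression and reagent-binding fluorescence. Labels for polyreactivity follow the gate of origin.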
In the case of “QVQLVESGGGLVQAGGSLRLSCAASGIISGDYAMAWYRQAHGKERELVARITSGDSTNYADSVKGRFTISRDNAKNTVYLQMNSLKPEDTAVYYCAADRVWAYWTYGYWGQGTQVTVSS”, the “polyreactivity (PSR sort gate)” value is reported as “low polyreactivity”.
With “QVQLVESGGGLVQAGGSLRLSCAASGIISIFNVMGWYRQAPGKERELVASITGRGGSTFYADSVKGRFTISRDNAKNTVYLQMNSLKPEDTAVYYCATDTGYTYPVTGLYDYWGQGTQVTVSS” the “polyreactivity (PSR sort gate)” value was “low polyreactivity”.
For “QVQLVESGGGLVQAGGSLRLSCAASGIIVEYYTMGWKRQAPGKERELVASITYDGDTTYYADSVKGRFTISRDNAKITVYLQMNSRKPEDTAVYYCAADYYYVYSSFGHYYWGQGTQVTVSS”, the “polyreactivity (PSR sort gate)” value was “low polyreactivity”.
With “QVQLVESGGGLVQAGGSLRLSCAASGIIVPNAMGWYRQAPGKERELVAVITSGGSTYYADSVKGRFTISRDNAKNTVSLQMNSLKPEDTAVYYCNKDYAAIDRYDSWGQGTQVTVSS” the “polyreactivity (PSR sort gate)” value was “low polyreactivity”.
For “QVQLVESGGGLVQAGGSLRLSCAASGIIVPNAMGWYRQAPGKERELVAVITSGGSTYYADSVKGRFTISRDNAKNTVYLQMNSLKPEDTAVYYCNKDYAAIDRYDSWGQGTQVTVSS”, the “polyreactivity (PSR sort gate)” value was “low polyreactivity”.
With “QVQLVESGGGLVQAGGSLRLSCAASGIIWYYAMGWYRQAPGKERELVAAISWSSGSTYYADSVKGRFTISRDNAKNTVYLQMNSLKPEDSAVYYCAADVYLVKYDYWGQGTQVTVSS” the “polyreactivity (PSR sort gate)” value was “high polyreactivity”.
With “QVQLVESGGGLVQAGGSLRLSCAASGINFAYNAMGWYRQAPGKERELVATITDSGGSTSYADSVKGRFTISRDNAKNTVYLQMNSLKPEDTAVYYCAVLPVYWYWRNYVYLSGYDYWGQGTQVTVSS” the “polyreactivity (PSR sort gate)” value was “low polyreactivity”.
In the case of “QVQLVESGGGLVQAGGSLRLSCAASGINFDDNAMGWYRQAPGKERELVATISDGGRTYYADSVKGRFTISRDNAKNTVYLQMNSQKPEDTAVYYCADRLWWPYSPAWAKMDYGGQGTQVTVSS”, the “polyreactivity (PSR sort gate)” value is reported as “low polyreactivity”.
With “QVQLVESGGGLVQAGGSLRLSCAASGINFDTNAIGWYRQAPGKERELVATITQRGGTTYYADSVKGRFTISRDNAKNTVYLQMNSLKPEDTAVYYCNAGPVGLPYDSWGQGTQVTVSS” the “polyreactivity (PSR sort gate)” value was “low polyreactivity”.
In the case of “QVQLVESGGGLVQAGGSLRLSCAASGINFFGKYAMGWYRQAPGKERELVAAISWSGGRTYYADSVKWRFTISRDNAKNTVYLQMNSLKPEDTAVYYCAVYPRDAERYGYCGQGTQVTVSS”, the “polyreactivity (PSR sort gate)” value is reported as “high polyreactivity”.
With “QVQLVESGGGLVQAGGSLRLSCAASGINFKGNAMGWYRQAPGKERELVATISSGGTTNYADSVKGRFTISRDNAKNTVYLQMNSLKPEDTAVYYCAKRGYYRSRRYDYWGQGTQVTVSS” the “polyreactivity (PSR sort gate)” value was “high polyreactivity”.
For “QVQLVESGGGLVQAGGSLRLSCAASGINFKRYAMGWYRQAPGKESELVATINRDGRTSYADSVKGRFTISRDNAKNTVYLQMNSLKQEDTAVYYFNKRGTYATPTPGNLFDYWGQGTLVTVSS”, the “polyreactivity (PSR sort gate)” value was “low polyreactivity”.
For “QVQLVESGGGLVQAGGSLRLSCAASGINFSPYAMGWYRQAPGKERELVAAISYSGGSTYYADSVKGRFTISRDNAKNTVYLQMNSLKPEDTAVYYCAVVYSYYLAVLGYWDYDYWGQGTQVTVSS”, the “polyreactivity (PSR sort gate)” value was “low polyreactivity”.
With “QVQLVESGGGLVQAGGSLRLSCAASGINFVGYAMGWYRQAPGKERELVAAISTSSRTYYADSVKGRFTISRDNAKITVYLHMNSLKPDDTAVYYCNARGTRWYYRHDYWGQGTQVTVSS” the “polyreactivity (PSR sort gate)” value was “high polyreactivity”.
With “QVQLVESGGGLVQAGGSLRLSCAASGINFYYNAMGWYRQAPGKERELVATISWSDTSTYYADSVKGRFTISRDNAKNTVFLQMNSLKPEDTAGYYCATDGRETWLPEYYWGQGTQVTVSS” the “polyreactivity (PSR sort gate)” value was “low polyreactivity”.
With “QVQLVESGGGLVQAGGSLRLSCAASGIPRNTMGWYRQAPGKERELVASISTSGGSTYYADSVKGRFTISLDNAKKTVYLQMNSLKPEDTAVYYCAKKAYASRYFIYDYWGQGTQVTVSS” the “polyreactivity (PSR sort gate)” value was “low polyreactivity”.
With “QVQLVESGGGLVQAGGSLRLSCAASGISFSQYARGWYRQAPGKERELVAAISGSGGDTYYADSVKGRFTISRDNAKNTVYLQMNSLKPEDTAVYYCNADYESVYYEDYDYWGQGTQVTVSS” the “polyreactivity (PSR sort gate)” value was “low polyreactivity”.
With “QVQLVESGGGLVQAGGSLRLSCAASGISYTSYAMGWYRQAPGKERELVAAISSSGGSTYYADSVKGRFTISRDNAKNTVYLQMNSLKPEDTAVYYCIARPRSRSPRVEYDYWGQGTQVTVSS” the “polyreactivity (PSR sort gate)” value was “high polyreactivity”.
With “QVQLVESGGGLVQAGGSLRLSCAASGITFAENAMGWFRQAPGKERELVAAISGSGVDTYYADSVKGRFTISRDNAKNPVYLQMNSVKPEDTAVYYSNAVYYRSSYPSGRYGMDYWGQGTQVTVSS” the “polyreactivity (PSR sort gate)” value was “high polyreactivity”.
With “QVQLVESGGGLVQAGGSLRLSCAASGITFARYAMAWYRPAPGKERELVAAISKRGGRTYYADSVKGRFTISRDNAKNTFYLQMNSLKPEDTAVYYCATDYYVSTDYNYWGQGTQVTLSS” the “polyreactivity (PSR sort gate)” value was “high polyreactivity”.
For “QVQLVESGGGLVQAGGSLRLSCAASGITFASNTMGWYRQAPGKERELVAAITRGDNTYYADSVKGRFTISRDNAKNTVYLQMNSLKPEDTSVYYCATEGYQIQYEHDYWGQGTQVTVSS”, the “polyreactivity (PSR sort gate)” value was “low polyreactivity”.
With “QVQLVESGGGLVQAGGSLRLSCAASGITFATNAMGWYRQAPGKERDLVAGITSGGSTYYADSVKGRFTISRDNAKNTVYLQMNSLKPEDTAVYYCAKRYHYWYGTGYDYWGQGTQVTVSS” the “polyreactivity (PSR sort gate)” value was “low polyreactivity”.
With “QVQLVESGGGLVQAGGSLRLSCAASGITFAYYAMGWYRQAPGKERELVAAIRWSGGDTYYADSVKGRFTISRDNAKNTVYLQMNSLKPEDTAVYYCAADTTWGYDYWGQGTQVTVSS” the “polyreactivity (PSR sort gate)” value was “low polyreactivity”.
With “QVQLVESGGGLVQAGGSLRLSCAASGITFAYYAMGWYRQAPGKERELVAVITSGGRTNYADSVKGRFTISRDNAKNTVYLQMNSLKPEDTAVYYCAAYRSSKTLRLGYYYWGQGTQVTVSS” the “polyreactivity (PSR sort gate)” value was “high polyreactivity”.
With “QVQLVESGGGLVQAGGSLRLSCAASGITFCYNTMGWYRQAPGKERELVAAISGSGGRTYYADSVKGRFTISRDNAKNTVYLQMNSLKPEDTAVYDCAARWQIWSSLYDYWGQGTQVTVSS” the “polyreactivity (PSR sort gate)” value was “high polyreactivity”.
In the case of “QVQLVESGGGLVQAGGSLRLSCAASGITFDDYAMGWYRQAPGKERELVAAISESGDSTYYADSVKGRFTISRDNAKNTVYFQMNSLKPEDTAVYYCAADSTYYYGWGMYYWGQGTQVTVSS”, the “polyreactivity (PSR sort gate)” value is reported as “high polyreactivity”.
For “QVQLVESGGGLVQAGGSLRLSCAASGITFDDYDMGWYIQAPGKEREFVAAISFSGSSTYYADSVKGRFTISRDNAKNTVYLQMNSLKPEDTAVYYCAAVTTGTITSKYNYWGQGTQVTVSS”, the “polyreactivity (PSR sort gate)” value was “low polyreactivity”.
For “QVQLVESGGGLVQAGGSLRLSCAASGITFDDYDMGWYRQAPGKERELVAAISWSGGSTYYADSVKGRFTISRDNAKTTVYLQMNSLKPEDTAVYYCAAEVIWWVREYYYWGQGTQVTVSS”, the “polyreactivity (PSR sort gate)” value was “low polyreactivity”.
For “QVQLVESGGGLVQAGGSLRLSCAASGITFDGYAMGWNTQAPGKEREFVAAITWNGGSTYYADSVKGRFTISRDNAKNTVYLQMNSLKPEDTAVYYCNADPFTGYDYWGQGTQVTVSS”, the “polyreactivity (PSR sort gate)” value was “low polyreactivity”.
For “QVQLVESGGGLVQAGGSLRLSCAASGITFDHYAMGWYRQAPGKEREFVAAIDDIGGDTYYADSVKGRFTISRDNAKNTVYLQMNSLKPEDTAVYYCAADYGYYSRFYYWGQGTQVTVSS”, the “polyreactivity (PSR sort gate)” value was “low polyreactivity”.
With “QVQLVESGGGLVQAGGSLRLSCAASGITFDLYVMGWYRQAPGKERDLVAAINRGTSTYYADSVKGRFTISRDNAKITVYLQMNSLKPEDTAVYYCAADSGGVALYRYDYWGKGTQVTVSS” the “polyreactivity (PSR sort gate)” value was “low polyreactivity”.
In the case of “QVQLVESGGGLVQAGGSLRLSCAASGITFDNNAMGWYRQAPGKEREFVADIDGSGGSTYYADSVKGRFTISRDNAKNTVYLQMNSLKPEDTAVYYCNAGYVHSFDYWGQGTQVTVSS”, the “polyreactivity (PSR sort gate)” value is reported as “low polyreactivity”.
For “QVQLVESGGGLVQAGGSLRLSCAASGITFDSYAMGWNRQAPGKERELVAAISYSGGSTYYADSVKGRFTISRDNAKNTVYLQMNSLNPEDTAVYFCAAGSDDDYDYWGQGTQVTVSS”, the “polyreactivity (PSR sort gate)” value was “low polyreactivity”.
In the case of “QVQLVESGGGLVQAGGSLRLSCAASGITFDTYAMGCYIQAPGKERELVAAISKSGGSTYYADSVKGRFTISRDNAKNTVYLQMNSLKPEDTAVYYCNARYRNSGRYWDWYYYWGQGTQVTVSS”, the “polyreactivity (PSR sort gate)” value is reported as “high polyreactivity”.
For “QVQLVESGGGLVQAGGSLRLSCAASGITFDYYAMGWYRQAPGIERELVAAIDDSGGSTYYADSVKGRFTISRDNAKNTVYLQMNSLKPEDTAVYYCAAEFFYYEYDYWGQGTQVTVSS”, the “polyreactivity (PSR sort gate)” value was “high polyreactivity”.
For “QVQLVESGGGLVQAGGSLRLSCAASGITFDYYAMGWYRQAPGKERELVAAIDTGGSTNYADSVKGRFTISRDNAKNTVYLQMNSLKPEDTAVYYCAKDPHGSDFGYWGQGTQVTVSS”, the “polyreactivity (PSR sort gate)” value was “low polyreactivity”.
In the case of “QVQLVESGGGLVQAGGSLRLSCAASGITFDYYAMGWYRQAPGKERELVAAISWGGGSTYYADSVKGRFTISRDNAKNTVYLQMNSLKPEDTAVYYCAADIVSSPSSYVPPGDYWGQGTQVTVSS”, the “polyreactivity (PSR sort gate)” value is reported as “low polyreactivity”.
In the case of “QVQLVESGGGLVQAGGSLRLSCAASGITFDYYAMGWYRQAPGKERELVAAISWGGGSTYYADSVKGRFTISRDNAKNTVYLQMNSLKQEDTAVYYCAAVIVYSPSSYVRPGDYWGQGTQVTVSS”, the “polyreactivity (PSR sort gate)” value is reported as “low polyreactivity”.
For “QVQLVESGGGLVQAGGSLRLSCAASGITFDYYAMGWYRQAPGKERELVAAISYSGGSTYYADSVKGRFTISRDNAKNTVYLQMNSLKPEDTAVYYCAAETFTISSDYYYWGQGTQVTVSS”, the “polyreactivity (PSR sort gate)” value was “low polyreactivity”.
In the case of “QVQLVESGGGLVQAGGSLRLSCAASGITFDYYAMGWYRQAPGKERELVAAITSVGNTYYADSVKGRFTISRDNAKNTVYLQMNSLKPEDTAVYYCNALSFYSLVSFDYWGQGTQVTVSS”, the “polyreactivity (PSR sort gate)” value is reported as “low polyreactivity”.
In the case of “QVQLVESGGGLVQAGGSLRLSCAASGITFDYYAMGWYRQSPGKERELVAAISYSAGSTYYADSVKGRFTISRDNAKNTVYLQMNSLKPEDTAVYYCAAETFTISSDYYYWGQGTQVTVSS”, the “polyreactivity (PSR sort gate)” value is reported as “low polyreactivity”.
For “QVQLVESGGGLVQAGGSLRLSCAASGITFDYYDMGWYRQAPGKERELVATITSDGSTYYADSVKGRFTISRDNAKNTVYLQMNSLKPEDTAVYYCNARRRTVPYRYDYWGQGTQVTVSS”, the “polyreactivity (PSR sort gate)” value was “high polyreactivity”.
For “QVQLVESGGGLVQAGGSLRLSCAASGITFDYYGMGWYRQAPGKERELFASITSGGSTNYADSVKGRFTISRDNAKNTVYLQMNSLKPEDTAVYYCNAEFWEVSPDPRDYDYWGQGTQVTVSS”, the “polyreactivity (PSR sort gate)” value was “low polyreactivity”.
